In US20070259805A1:

Biological target: MITF-M expressed in HEK293 cells from the pCI mammalian expression vector (human) (UniProt O75030)
Experiment: cell-based or functional assay

Sequence of UniProt O75030 (O75030 other isoform, or with tags, fused parts or gaps limits assumed): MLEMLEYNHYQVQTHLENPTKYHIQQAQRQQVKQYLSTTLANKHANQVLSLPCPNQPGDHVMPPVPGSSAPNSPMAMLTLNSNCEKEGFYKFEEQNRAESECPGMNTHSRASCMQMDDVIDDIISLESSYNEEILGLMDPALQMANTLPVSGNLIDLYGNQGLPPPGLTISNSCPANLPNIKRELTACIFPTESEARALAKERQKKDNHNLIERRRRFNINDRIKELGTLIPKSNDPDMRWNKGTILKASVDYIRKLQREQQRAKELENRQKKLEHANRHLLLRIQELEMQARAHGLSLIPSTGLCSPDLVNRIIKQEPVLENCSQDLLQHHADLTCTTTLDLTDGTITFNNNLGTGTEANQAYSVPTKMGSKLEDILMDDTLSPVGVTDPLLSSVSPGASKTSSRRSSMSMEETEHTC

| Substance | luciferase activity (firefly/renilla) in a reporter assay using BCL2 gene promoter, HEK293 cells, against cells transfected only with the MITF-M gene expression plasmid [fold] |
| --- | --- |
| CLOCK expressed in HEK293 cells from the pCI mammalian cell expression vector (from UniProt O15516 1-846) | 1.5 |
| carboxy-terminal FLAG-tagged ELK4 protein expressed in HEK293 cells from pCI (from UniProt P28324 1-372) | 1.4 |
| carboxy-terminal FLAG-tagged HLF protein expressed in HEK293 cells from pCI (from UniProt Q16534 1-295) | 1.8 |
